Results published in US20240124865.
Where a chain is given by its changes, count along the chain named. Numbers in names are those of the source.

B1: ADAMTS13 P1182K variant (Exemplified P1182K variant) (protein)
chain: AAGGILHLELLVAVGPDVFQAHQEDTERYVLTNLNIGAELLRDPSLGAQFRVHLVKMVILTEPEGAPNITANLTSSLLSVCGWSQTINPEDDTDPGHADLVLYITRFDLELPDGNRQVRGVTQLGGACSPTWSCLITEDTGFDLGVTIAHEIGHSFGLEHDGAPGSGCGPSGHVMASDGAAPRAGLAWSPCSRRQLLSLLSAGRARCVWDPPRPQPGSAGHPPDAQPGLYYSANEQCRVAFGPKAVACTFAREHLDMCQALSCHTDPLDQSSCSRLLVPLLDGTECGVEKWCSKGRCRSLVELTPIAAVHGRWSSWGPRSPCSRSCGGGVVTRRRQCNNPRPAFGGRACVGADLQAEMCNTQACEKTQLEFMSQQCARTDGQPLRSSPGGASFYHWGAAVPHSQGDALCRHMCRAIGESFIMKRGDSFLDGTRCMPSGPREDGTLSLCVSGSCRTFGCDGRMDSQQVWDRCQVCGGDNSTCSPRKGSFTAGRAREYVTFLTVTPNLTSVYIANHRPLFTHLAVRIGGRYVVAGKMSISPNTTYPSLLEDGRVEYRVALTEDRLPRLEEIRIWGPLQEDADIQVYRRYGEEYGNLTRPDITFTYFQPKPRQAWVWAAVRGPCSVSCGAGLRWVNYSCLDQARKELVETVQCQGSQQPPAWPEACVLEPCPPYWAVGDFGPCSASCGGGLRERPVRCVEAQGSLLKTLPPARCRAGAQQPAVALETCNPQPCPARWEVSEPSSCTSAGGAGLALENETCVPGADGLEAPVTEGPGSVDEKLPAPEPCVGMSCPPGWGHLDATSAGEKAPSPWGSIRTGAQAAHVWTPAAGSCSVSCGRGLMELRFLCMDSALRVPVQEELCGLASKPGSRREVCQAVPCPARWQYKLAACSVSCGRGVVRRILYCARAHGEDDGEEILLDTQCQGLPRPEPQEACSLEPCPPRWKVMSLGPCSASCGLGTARRSVACVQLDQGQDVEVDEAACAALVRPEASVPCLIADCTYRWHVGTWMECSVSCGDGIQRRRDTCLGPQAQAPVPADFCQHLPKPVTVRGCWAGPCVGQGTPSLVPHEEAAAPGRTTATPAGASLEWSQARGLLFSPAPQPRRLLPGKQENSVQSSACGRQHLEPTGTIDMRGPGQADCAVAIGRPLGEVVTLRVLESSLNCSAGDMLLLWGRLTWRKMCRKLLDMTFSSKTNTLVVRQRCGRPGGGVLLRYGSQLAPETFYRECDMQLFGPWGEIVSPSLSPATSNAGGCRLFINVAPHARIAIHALATNMGAGTEGANASYILIRDTHSLRTTAFHGQQVLYWESESSQAEMEFSEGFLKAQASLRGQYWTLQSWVPEMQDPQSWKGKEGTSRGPFEQKLISEEDLNMHTGHHHHHH
B2: Myc/His6-tagged ADAMTS13 A1144V variant (Exemplified A1144V variant) (protein)
chain: B1 chain with A1070V, K1108P
B3: Myc/His6-tagged ADAMTS13 A1146V variant (Exemplified A1146V variant) (protein)
chain: B1 chain with A1072V, K1108P
B4: Myc/His6-tagged recombinant wildtype human ADAMTS13 (Exemplified wildtype ADAMTS13) (protein)
chain: B1 chain with K1108P
B5: ADAMTS13 P1182I variant (Exemplified P1182I variant) (protein)
chain: B1 chain with K1108I
B6: Myc/His6-tagged ADAMTS13 P1180V variant (Exemplified P1180V variant) (protein)
chain: B1 chain with P1106V, K1108P
B7: Myc/His6-tagged ADAMTS13 P1182V variant (Exemplified P1182V variant) (protein)
chain: B1 chain with K1108V

Molecular target: T1, FRETS-VWF73 substrate (VWF fragment comprising VWFA2 domain residues 1596 to 1668)
T1 chain: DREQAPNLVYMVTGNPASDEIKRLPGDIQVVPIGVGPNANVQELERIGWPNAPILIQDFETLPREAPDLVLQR

Protein	proteolytic activity, FRETS-VWF73 assay, fold increase	proteolytic activity, FRETS-VWF73 assay, absence of VWF-D4CK, fold over wildtype ADAMTS13	proteolytic activity, FRETS-VWF73 assay, in the absence and in the presence of the activating VWF-D4CK fragment	proteolytic activity, FRETS-VWF73 assay, basal (no VWF-D4CK); reference for all other activities
B1	Induces greater than 10-fold increase in activity	–	–	–
B2	–	more than 4-fold higher than wildtype ADAMTS13	displayed significantly higher proteolytic activity compared to wildtype ADAMTS13 and the R568K/F592Y/R660K/Y661F/Y665F variant	–
B3	–	more than 4-fold higher than wildtype ADAMTS13	displayed significantly higher proteolytic activity compared to wildtype ADAMTS13 and the R568K/F592Y/R660K/Y661F/Y665F variant	–
B4	–	–	–	All activities are presented relative to the basal activity of wtADAMTS13 (100%)
B5	Induces greater than 10-fold increase in activity	–	–	–
B6	–	more than 4-fold higher than wildtype ADAMTS13	displayed significantly higher proteolytic activity compared to wildtype ADAMTS13 and the R568K/F592Y/R660K/Y661F/Y665F variant	–
B7	–	more than 4-fold higher than wildtype ADAMTS13	displayed significantly higher proteolytic activity compared to wildtype ADAMTS13 and the R568K/F592Y/R660K/Y661F/Y665F variant	–
